Data: patent US11235004B2, “Lymphocyte cell lines and uses thereof” (Innovative Cellular Therapeutics Holdings, Ltd., priority 2017, dated 2022)

Assays:
[1] = test system: transduced T cells (ef1a-TK-IRES-rtTA-TRE-hTERT) and non-transduced T cells; test: Ganciclovir (TK suicide switch) cell growth test; assay type: cell-based, human; details: in the presence of GCV
Experimental: Experimental cells: CD8+CZY-1 SDS-T and NT cell; TK usage: Adult body concentration of 71.45 ng/ml/5000 ng/kg every 24 h injection. In vitro experimental concentration gradients: 357.2 ng/ml, 142.9 ng/ml, 71.45 ng/ml, 35.725 ng/ml, 14.28 ng/ml, 3.6 ng/ml. […] The starting cells were cultured in 200 w cell density of 50 w/ml.
In group three, transduced cells (ef1a-TK-IRES-rtTA-TRE-hTERT) were cultured using media containing Dox (2 μg/ml) and CD19 ECD (1 mg/250,000 CAR T cells). On day 90, various concentrations of GCV was added to the transduced cells. […] DTT cells represent transduced T cells and grew poorly in the presence of GCV.

[2] = test system: CAR T-TSHR cells; test: Culture of CAR T-TSHR cells with soluble TSHR ECD; assay type: cell-based, human
Excerpt: Primary T cells were transduced with lentiviral vectors encoding a TSHR CAR to obtain modified T cells including CAR T cells expressing anti-TSHR (thereafter “CAR T-TSHR cells”). The modified T cells were frozen and stored for 30 days. Techniques related to freezing T cells and thawing frozen T cells may be found in Levine et al., Molecular Therapy—Methods & Clinical Development, Molecular Therapy, Vol 4, Mar. 17, 2017.
The modified Tcells were thawed and divided into two groups and cultured, respectively. CAR T-TSHR cells in Group 1 were cultured with anti-CD3 & CD28 beads and IL2 for 10 days, while CAR T-TSHR cells in Group 2 were cultured with various concentrations of soluble TSHR (e.g., extracellular domain of TSHR, SEQ ID: 34), anti-CD3 & CD28 beads and IL2. For Group 2, 500,000 CAR T-TSHR cells were cultured with 10, 125, 500 ng/ml of soluble TSHR ECD for 14 days. The T cell population was observed by flow cytometry (FIGS. 8 and 9), and cellular morphology of the T cell population was observed under microscopes (FIG. 10).

[3] = test system: CAR T19 cells; test: Culture of CAR T19 cells with or without soluble CD19 ECD; assay type: cell-based, human
Experimental: The primary T cells were transduced with lentiviral vectors encoding a CD19 CAR to obtain modified T cells including CAR T cells expressing anti-CD19 (thereafter “CAR T19 cells”) on day 1. The modified T cells were divided into two groups and cultured, respectively. CAR T19 cells in Group 1 were cultured with anti-CD3 & CD28 beads and IL2, while CAR T19 cells in Group 2 were cultured with soluble CD19 (e.g., extracellular domain (ECD) of CD19, SEQ ID: 41), anti-CD3 & CD28 beads and IL2. For Group 2, 500,000 CAR T19 cells were cultured with 2 micrograms of soluble CD19 at the starting point, and 4 micrograms of soluble CD19 were used after the CAR T19 cells were grown. The numbers of cells were measured, and ratios between CAR+ cells and the modified T cell population were observed by flow cytometry. The number of CAR copies in the cell population was measured.
T cell phenotypes were further observed. […] Memory cell marker CD62L on CAR+ and CAR-cells were analyzed to determine phenotypes of cultured T cell population.
CAR T19 cells were cultured with CD19 for over 15 days and then were divided into Group 3 and Group 4. CAR T19 cells in Group 3 were continuously cultured with soluble CD19, while CAR T19 cells in Group 4 were cultured without CD19.

[4] = test system: K562-CD19; test: IFN-gamma release of CAR T19 cells co-cultured with K562-CD19; assay type: cell-based; details: after 24 hours; Group 2 (pre-cultured with CD19) vs Group 1; E:T 1:1 or 1:10
Experimental: CAR T19 cells of Group 1 and Group 2 were cultured for about one to three weeks using the protocols described above, respectively. CAR T19 cells were then washed and placed into cultures without CD19. These CAR T19 cells were co-cultured with K562-CD19 (E:T 1:1 or 1:10). After 24 hours, 48 hours, and 72 hours, supernatant of the cultures were collected, and IFN-gamma released by the cells were measured to determine functions of CAR T19 cells.

[5] = test system: CAR T cells; test: Long-term culture of CAR T cells (groups A-D) with CD19 antigen, flow cytometry; assay type: cell-based, human
Excerpt: Various CARs (A, B, C, and D) were constructed by linking a signal peptide (SEQ ID NO: 38), antigen-specific single-chain variable fragment (scFv) (SEQ ID NO: 55 or 21), hinge domain (SEQ ID NOs: 68, 69, 70, or 71), a transmembrane domain (SEQ ID NO: 72, 73, 74, or 75), one or more co-stimulation domains (SEQ ID NO: 3), CD3-ζ (SEQ ID NO: 40), and EGFP, respectively (See FIGS. 12 and 13).
Primary T cells were obtained from the peripheral blood of volunteers. The magnetic beads negative selection was performed using Pan-T kit from Miltenyi Biotec, Inc. to collect T cells from the peripheral blood. On the second day after primary T cell isolation, the collected T cells were infected with lentivirus containing A, B, C, and D CARs, respectively (i.e., Lenti-CARs-IRES-EGFP) to prepare CAR T cells.
On the 14th day after infection, 15,000 CAR T cells of each group were collected, and cultured with 1000 ng/ml CD 19 antigen (i.e., recombinant human CD19 protein. After 15 days of stimulation, the concentration of CD19 was changed to 400 ng/ml. After 20 days of stimulation, the concentration of CD19 was changed to 200 ng/ml and maintained until about 130 days.
The expression of CARs and cell morphology were observed using flow cytometry on day-2, day 15 (FIGS. 14-17), day 17 (FIG. 20), day 65 and day 130 at the beginning of the stimulus. […]

[6] = Survival and growth of various CAR T cells in vitro (FIG. 43); assay type: cell-based, human; details: medium containing CD19 ECD vs no CD19 ECD
Excerpt: In Group 1 (hTert CD19 CAR), the primary T cells obtained from a healthy donor were transduced with a nucleic acid sequence encoding a CD19 CAR and a nucleic acid sequence encoding hTERT. In Group 2 (CD19 CAR), the primary T cells were transduced with the nucleic acid sequence encoding a CD19 CAR. […] CAR T cells are not comprising the nucleic acid sequence encoding hTERT begun to die after about 20 days after cells were transduced with the nucleic acid sequence encoding CAR.

[7] = test system: anti-CD19 CAR proliferable T cells; test: Culture of anti-CD19 CAR proliferable T cells with CD19 ECD; assay type: cell-based, human; details: CD19 ECD added to media (1 mg/250,000 CAR T cells)
Excerpt: The primary T cells obtained from a healthy donor were transduced with lentiviral vectors encoding a CD19 CAR (SEQ ID NO: 21) and lentiviral vectors including sequence 1 or 6 as illustrated in FIG. 1 (ef1a-TK-IRES-rtTA-TRE-hTERT: SEQ ID NOs: 1, 2, 3, 4, 5, and 6 in the 5′ to 3′ order or ef1a-rtTA-TRE-hTERT: SEQ ID Nos: 1, 4, 5, and 6 in the 5′ to 3′ order) to obtain transduced T cells including immortalized T cells expressing anti-CD19 CAR (thereafter “anti-CD19 CAR proliferable T cells”) on day one. The anti-CD19 CAR proliferable T cells were divided into various groups and cultured in different media: in the presence of various concentrations of doxycycline (Dox), CD19 extracellular domain (ECD), and/or Ganciclovir (GCV)). In some groups, CD19 ECD (SEQ ID NO: 22) was added to media (1 mg/250,000 CAR T cells), and percentages of cells expressing CD19 CAR increased.

Nc1nc(O)c2ncn(COC(CO)CO)c2n1 [GCV, Ganciclovir]
growth of DTT cells (transduced T cells) [1]: grew poorly | growth of NT (non-transduced T cells) [1]: continued to grow

TSHR ECD: soluble TSHR, extracellular domain of TSHR, SEQ ID: 34
ratio (P1) of CAR+ cells and the CAR T-TSHR cells ([2]; 500 ng/ml soluble TSHR ECD): significantly increased | cell debris ([2]; as the proportion of added antigen (TSHR-ECD) increased): decreased | MFI value (CAR fluorescence) ([2]; under 500 ng antigen stimulation): increased | SSC-A dispersible FSC low population ([2]; with increasing concentrations of TSHR ECD (10, 125, 500 ng/ml)): decreased

B1: CD19 ECD: soluble CD19, extracellular domain (ECD) of CD19, SEQ ID: 41 / SEQ ID NO: 22; recombinant human CD19 protein (protein)
chain: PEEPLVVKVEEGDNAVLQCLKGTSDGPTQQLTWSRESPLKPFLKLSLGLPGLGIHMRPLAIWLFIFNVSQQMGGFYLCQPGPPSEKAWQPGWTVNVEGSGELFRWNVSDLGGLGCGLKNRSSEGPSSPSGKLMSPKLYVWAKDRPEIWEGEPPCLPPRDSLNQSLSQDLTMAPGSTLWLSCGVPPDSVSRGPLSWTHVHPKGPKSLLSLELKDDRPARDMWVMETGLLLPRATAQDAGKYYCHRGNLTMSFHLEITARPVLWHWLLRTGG
cells showing the phenotype of memory cells (CD62L hi) ([3]; CAR T19 cells of Group 2 (cultured with CD19), day 30): entire or majority cells | cell expansion during the early stage ([3]; CD19 ECD added to media vs culturing without CD19 ECD, about day 3 to day 10, non-transduced T cells and CD19 CAR T cells): no apparent increases | ratio of CAR T19 cells and T cells (flow cytometry) ([3]; Group 2 (soluble CD19) vs Group 1): higher | copy numbers of CAR T19 cells (qPCR) ([3]; Group 2 (soluble CD19) vs Group 1 (no CD19)): higher | ratio of CAR T19 cells and T cells ([3]; Group 2, day 30 after the starting point): continued to rise | numbers of CAR+ cells ([3]; Group 4 (CD19 removed after over 15 days) vs Group 3 (continued soluble CD19), Day 27): relatively lower | cell expansion rates of CD19 CAR T cells after the early stage ([3]; vs cells cultured without the CD19 ECD, after about day 10): increased at a higher rate | IFN-gamma released [4]: significantly higher | percentage of CD4 cells ([5]; CD19-stimulated cells vs parallel untreated): increased | proportion of CAR+EGFP+ cells ([5]; after CD19 stimulation): increase | cell growth rates of hTERT CAR T cells [6]: higher cell growth rates | percentages of cells expressing CD19 CAR [7]: increased
